Data on nine molecules can be found in patent publication US12630600B2 (MEDIMMUNE LIMITED, priority 2022, dated 2026).

The target in one experiment is human glucagon receptor (human, UniProt P47871). As to the kind of experiment: cell-based or functional assay.
A further experiment concerns the target human GLP-1 receptor (human, UniProt P43220). As to the kind of experiment: cell-based or functional assay.

Starred links: 1 amine or outer side, 2 acyl side, 3 side chain; linkers in the order of their positions; H or OH if unused. Non-standard residues stand in square brackets, D forms with d. Groups on a side chain read outwards from the residue. No end group written: not given here. *: point of attachment. C20 diacid = O=C(O)CCCCCCCCCCCCCCCCCCC(=O)*; C18 diacid = O=C(O)CCCCCCCCCCCCCCCCC(=O)*; γGlu = O=C(O)[C@H](CCC(=O)[*:2])N[*:1]; αMeF = C[C@](N)(Cc1ccccc1)C(=O)O; AEEA = NCCOCCOCC(=O)O; Aib = CC(C)(N)C(=O)O

B1: Peptide 151 (peptide)
peptide: H[Aib]QGTFTSDVSK[αMeF]LDSK([AEEA-AEEA-γGlu-C20 diacid])RAQDFVRWLL[Aib]TE-OH
modifications: N-terminus assumed
SMILES: CC(C)C[C@H](NC(=O)[C@H](Cc1c[nH]c2ccccc12)NC(=O)[C@H](CCCNC(=N)N)NC(=O)[C@@H](NC(=O)[C@H](Cc1ccccc1)NC(=O)[C@H](CC(=O)O)NC(=O)[C@H](CCC(N)=O)NC(=O)[C@H](C)NC(=O)[C@H](CCCNC(=N)N)NC(=O)[C@H](CCCCNC(=O)COCCOCCNC(=O)COCCOCCNC(=O)CC[C@H](NC(=O)CCCCCCCCCCCCCCCCCCC(=O)O)C(=O)O)NC(=O)[C@H](CO)NC(=O)[C@H](CC(=O)O)NC(=O)[C@H](CC(C)C)NC(=O)[C@](C)(Cc1ccccc1)NC(=O)[C@H](CCCCN)NC(=O)[C@H](CO)NC(=O)[C@@H](NC(=O)[C@H](CC(=O)O)NC(=O)[C@H](CO)NC(=O)[C@@H](NC(=O)[C@H](Cc1ccccc1)NC(=O)[C@@H](NC(=O)CNC(=O)[C@H](CCC(N)=O)NC(=O)C(C)(C)NC(=O)[C@@H](N)Cc1c[nH]cn1)[C@@H](C)O)[C@@H](C)O)C(C)C)C(C)C)C(=O)N[C@@H](CC(C)C)C(=O)NC(C)(C)C(=O)N[C@H](C(=O)N[C@@H](CCC(=O)O)C(=O)O)[C@@H](C)O
B1: the “cAMP production, hGluc-R EC50 (pM)” value with human glucagon receptor came out at 178 pM. In addition, the “cAMP production, hGLP-1R EC50 (pM)” value with human GLP-1 receptor amounted to 111 pM.

As to H[Aib]QGTFTSDVSK[αMeF]LDSK([AEEA-AEEA-γGlu-C18 diacid])RARDFVRWLL[Aib]TE-OH (also: αMePhe at 23 (V)) [Peptide 166], the “cAMP production, hGluc-R EC50 (pM)” value in the experiment with human glucagon receptor was found to be 270 pM. The “cAMP production, hGLP-1R EC50 (pM)” value with human GLP-1 receptor was determined as 48 pM.

B2: Peptide 153 (peptide)
peptide: H[Aib]QGTFTSDVSK[αMeF]LDSK([AEEA-AEEA-γGlu-C20 diacid])RAQDFVRWLL[Aib]E-OH
modifications: N-terminus assumed
SMILES: CC(C)C[C@H](NC(=O)[C@H](Cc1c[nH]c2ccccc12)NC(=O)[C@H](CCCNC(=N)N)NC(=O)[C@@H](NC(=O)[C@H](Cc1ccccc1)NC(=O)[C@H](CC(=O)O)NC(=O)[C@H](CCC(N)=O)NC(=O)[C@H](C)NC(=O)[C@H](CCCNC(=N)N)NC(=O)[C@H](CCCCNC(=O)COCCOCCNC(=O)COCCOCCNC(=O)CC[C@H](NC(=O)CCCCCCCCCCCCCCCCCCC(=O)O)C(=O)O)NC(=O)[C@H](CO)NC(=O)[C@H](CC(=O)O)NC(=O)[C@H](CC(C)C)NC(=O)[C@](C)(Cc1ccccc1)NC(=O)[C@H](CCCCN)NC(=O)[C@H](CO)NC(=O)[C@@H](NC(=O)[C@H](CC(=O)O)NC(=O)[C@H](CO)NC(=O)[C@@H](NC(=O)[C@H](Cc1ccccc1)NC(=O)[C@@H](NC(=O)CNC(=O)[C@H](CCC(N)=O)NC(=O)C(C)(C)NC(=O)[C@@H](N)Cc1c[nH]cn1)[C@@H](C)O)[C@@H](C)O)C(C)C)C(C)C)C(=O)N[C@@H](CC(C)C)C(=O)NC(C)(C)C(=O)N[C@@H](CCC(=O)O)C(=O)O
As for B2, in the experiment with human glucagon receptor, the “cAMP production, hGluc-R EC50 (pM)” value was 99 pM. Also, in the experiment with human GLP-1 receptor, the “cAMP production, hGLP-1R EC50 (pM)” value came out at 41.2 pM.

B3: Peptide 152 (peptide)
peptide: H[Aib]QGTFTSDVSK[αMeF]LDSK([AEEA-AEEA-γGlu-C18 diacid])RAQDFVRWLL[Aib]E-OH
modifications: N-terminus assumed
SMILES: CC(C)C[C@H](NC(=O)[C@H](Cc1c[nH]c2ccccc12)NC(=O)[C@H](CCCNC(=N)N)NC(=O)[C@@H](NC(=O)[C@H](Cc1ccccc1)NC(=O)[C@H](CC(=O)O)NC(=O)[C@H](CCC(N)=O)NC(=O)[C@H](C)NC(=O)[C@H](CCCNC(=N)N)NC(=O)[C@H](CCCCNC(=O)COCCOCCNC(=O)COCCOCCNC(=O)CC[C@H](NC(=O)CCCCCCCCCCCCCCCCC(=O)O)C(=O)O)NC(=O)[C@H](CO)NC(=O)[C@H](CC(=O)O)NC(=O)[C@H](CC(C)C)NC(=O)[C@](C)(Cc1ccccc1)NC(=O)[C@H](CCCCN)NC(=O)[C@H](CO)NC(=O)[C@@H](NC(=O)[C@H](CC(=O)O)NC(=O)[C@H](CO)NC(=O)[C@@H](NC(=O)[C@H](Cc1ccccc1)NC(=O)[C@@H](NC(=O)CNC(=O)[C@H](CCC(N)=O)NC(=O)C(C)(C)NC(=O)[C@@H](N)Cc1c[nH]cn1)[C@@H](C)O)[C@@H](C)O)C(C)C)C(C)C)C(=O)N[C@@H](CC(C)C)C(=O)NC(C)(C)C(=O)N[C@@H](CCC(=O)O)C(=O)O
Take B3: the “cAMP production, hGluc-R EC50 (pM)” value with human glucagon receptor turned out to be 20.4 pM. In addition, the “cAMP production, hGLP-1R EC50 (pM)” value with human GLP-1 receptor was 11.9 pM.

B4: Peptide 4 (peptide)
peptide: HSQGS[αMeF]TSDVSK[αMeF]LDSK([AEEA-AEEA-γGlu-C18 diacid])AAQDFVQWIANT-NH2
modifications: N-terminus assumed
SMILES: CC[C@H](C)[C@H](NC(=O)[C@H](Cc1c[nH]c2ccccc12)NC(=O)[C@H](CCC(N)=O)NC(=O)[C@@H](NC(=O)[C@H](Cc1ccccc1)NC(=O)[C@H](CC(=O)O)NC(=O)[C@H](CCC(N)=O)NC(=O)[C@H](C)NC(=O)[C@H](C)NC(=O)[C@H](CCCCNC(=O)COCCOCCNC(=O)COCCOCCNC(=O)CC[C@H](NC(=O)CCCCCCCCCCCCCCCCC(=O)O)C(=O)O)NC(=O)[C@H](CO)NC(=O)[C@H](CC(=O)O)NC(=O)[C@H](CC(C)C)NC(=O)[C@](C)(Cc1ccccc1)NC(=O)[C@H](CCCCN)NC(=O)[C@H](CO)NC(=O)[C@@H](NC(=O)[C@H](CC(=O)O)NC(=O)[C@H](CO)NC(=O)[C@@H](NC(=O)[C@](C)(Cc1ccccc1)NC(=O)[C@H](CO)NC(=O)CNC(=O)[C@H](CCC(N)=O)NC(=O)[C@H](CO)NC(=O)[C@@H](N)Cc1c[nH]cn1)[C@@H](C)O)C(C)C)C(C)C)C(=O)N[C@@H](C)C(=O)N[C@@H](CC(N)=O)C(=O)N[C@H](C(N)=O)[C@@H](C)O
Regarding B4, in the experiment with human glucagon receptor, the “cAMP production, hGluc-R EC50 (pM)” value came out at 1170 pM. Also, in the experiment with human GLP-1 receptor, the “cAMP production, hGLP-1R EC50 (pM)” value was determined as 240 pM.

Consider H[Aib]QGTFTSDVSK[αMeF]LDSK([AEEA-AEEA-γGlu-C18 diacid])RAQDFVQWLL[Aib]TE-OH (not fully specified) [Peptide 150], for which the “cAMP production, hGluc-R EC50 (pM)” value with human glucagon receptor came to 355 pM. Besides, the “cAMP production, hGLP-1R EC50 (pM)” value in the experiment with human GLP-1 receptor is 166 pM.

B5: Peptide 20 (peptide)
peptide: H[Aib]HGS[αMeF]TSDVSK[αMeF]LDSK([AEEA-AEEA-γGlu-γGlu-C18 diacid])AARD[αMeF]VE[Aib]IANT-NH2
modifications: N-terminus assumed
SMILES: CC[C@H](C)[C@H](NC(=O)C(C)(C)NC(=O)[C@H](CCC(=O)O)NC(=O)[C@@H](NC(=O)[C@](C)(Cc1ccccc1)NC(=O)[C@H](CC(=O)O)NC(=O)[C@H](CCCNC(=N)N)NC(=O)[C@H](C)NC(=O)[C@H](C)NC(=O)[C@H](CCCCNC(=O)COCCOCCNC(=O)COCCOCCNC(=O)CC[C@H](NC(=O)CC[C@H](NC(=O)CCCCCCCCCCCCCCCCC(=O)O)C(=O)O)C(=O)O)NC(=O)[C@H](CO)NC(=O)[C@H](CC(=O)O)NC(=O)[C@H](CC(C)C)NC(=O)[C@](C)(Cc1ccccc1)NC(=O)[C@H](CCCCN)NC(=O)[C@H](CO)NC(=O)[C@@H](NC(=O)[C@H](CC(=O)O)NC(=O)[C@H](CO)NC(=O)[C@@H](NC(=O)[C@](C)(Cc1ccccc1)NC(=O)[C@H](CO)NC(=O)CNC(=O)[C@H](Cc1c[nH]cn1)NC(=O)C(C)(C)NC(=O)[C@@H](N)Cc1c[nH]cn1)[C@@H](C)O)C(C)C)C(C)C)C(=O)N[C@@H](C)C(=O)N[C@@H](CC(N)=O)C(=O)N[C@H](C(N)=O)[C@@H](C)O
In the case of B5, in the experiment with human GLP-1 receptor, the “cAMP production, hGLP-1R EC50 (pM)” value is 152 pM.

B6: Peptide 140 (peptide)
peptide: H[Aib]QGTFTSDVSK[αMeF]LDTK([AEEA-AEEA-γGlu-C18 diacid])RAQDFVRWLLE[Aib]G-OH
modifications: N-terminus assumed
SMILES: CC(C)C[C@H](NC(=O)[C@H](Cc1c[nH]c2ccccc12)NC(=O)[C@H](CCCNC(=N)N)NC(=O)[C@@H](NC(=O)[C@H](Cc1ccccc1)NC(=O)[C@H](CC(=O)O)NC(=O)[C@H](CCC(N)=O)NC(=O)[C@H](C)NC(=O)[C@H](CCCNC(=N)N)NC(=O)[C@H](CCCCNC(=O)COCCOCCNC(=O)COCCOCCNC(=O)CC[C@H](NC(=O)CCCCCCCCCCCCCCCCC(=O)O)C(=O)O)NC(=O)[C@@H](NC(=O)[C@H](CC(=O)O)NC(=O)[C@H](CC(C)C)NC(=O)[C@](C)(Cc1ccccc1)NC(=O)[C@H](CCCCN)NC(=O)[C@H](CO)NC(=O)[C@@H](NC(=O)[C@H](CC(=O)O)NC(=O)[C@H](CO)NC(=O)[C@@H](NC(=O)[C@H](Cc1ccccc1)NC(=O)[C@@H](NC(=O)CNC(=O)[C@H](CCC(N)=O)NC(=O)C(C)(C)NC(=O)[C@@H](N)Cc1c[nH]cn1)[C@@H](C)O)[C@@H](C)O)C(C)C)[C@@H](C)O)C(C)C)C(=O)N[C@@H](CC(C)C)C(=O)N[C@@H](CCC(=O)O)C(=O)NC(C)(C)C(=O)NCC(=O)O
For B6, in the experiment with human GLP-1 receptor, the “cAMP production, hGLP-1R EC50 (pM)” value was 22.7 pM.

B7: Peptide 5 (peptide)
peptide: H[Aib]QGS[αMeF]TSDVSK[αMeF]LDSK([AEEA-AEEA-γGlu-γGlu-C18 diacid])AAQD[αMeF]VQ[Aib]IAN-NH2
modifications: N-terminus assumed
SMILES: CC[C@H](C)[C@H](NC(=O)C(C)(C)NC(=O)[C@H](CCC(N)=O)NC(=O)[C@@H](NC(=O)[C@](C)(Cc1ccccc1)NC(=O)[C@H](CC(=O)O)NC(=O)[C@H](CCC(N)=O)NC(=O)[C@H](C)NC(=O)[C@H](C)NC(=O)[C@H](CCCCNC(=O)COCCOCCNC(=O)COCCOCCNC(=O)CC[C@H](NC(=O)CC[C@H](NC(=O)CCCCCCCCCCCCCCCCC(=O)O)C(=O)O)C(=O)O)NC(=O)[C@H](CO)NC(=O)[C@H](CC(=O)O)NC(=O)[C@H](CC(C)C)NC(=O)[C@](C)(Cc1ccccc1)NC(=O)[C@H](CCCCN)NC(=O)[C@H](CO)NC(=O)[C@@H](NC(=O)[C@H](CC(=O)O)NC(=O)[C@H](CO)NC(=O)[C@@H](NC(=O)[C@](C)(Cc1ccccc1)NC(=O)[C@H](CO)NC(=O)CNC(=O)[C@H](CCC(N)=O)NC(=O)C(C)(C)NC(=O)[C@@H](N)Cc1c[nH]cn1)[C@@H](C)O)C(C)C)C(C)C)C(=O)N[C@@H](C)C(=O)N[C@@H](CC(N)=O)C(N)=O
As for B7, the “cAMP production, hGluc-R EC50 (pM)” value with human glucagon receptor came to 7140 pM. In the experiment with human GLP-1 receptor, the “cAMP production, hGLP-1R EC50 (pM)” value stood at 283 pM.
